# Reference: patent US20240002531A1 (ONO PHARMACEUTICAL, published 2024)
# Where a chain is given by its changes, count along the chain named.
# T1: F616A peptide (HER2 603-622 with F616A) (human)
# T1 peptide: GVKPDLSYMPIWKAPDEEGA
# T2: W614A peptide (HER2 603-622 with W614A) (human)
# T2 peptide: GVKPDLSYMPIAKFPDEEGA
# T3: P617A peptide (HER2 603-622 with P617A) (human)
# T3 peptide: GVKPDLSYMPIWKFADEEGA
# T4: L608A peptide (HER2 603-622 with L608A) (human)
# T4 peptide: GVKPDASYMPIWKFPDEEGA
# T5: G621A peptide (HER2 603-622 with G621A) (human)
# T5 peptide: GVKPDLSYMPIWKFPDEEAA
# T6: S609A peptide (HER2 603-622 with S609A) (human)
# T6 peptide: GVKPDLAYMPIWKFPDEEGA
# T7: K615A peptide (HER2 603-622 with K615A) (human)
# T7 peptide: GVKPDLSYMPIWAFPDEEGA
# T8: D618A peptide (HER2 603-622 with D618A) (human)
# T8 peptide: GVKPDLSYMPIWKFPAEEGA
# T9: I613A peptide (HER2 603-622 with I613A) (human)
# T9 construct: also called 1613A
# T9 peptide: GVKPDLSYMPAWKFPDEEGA
# T10: Y610A peptide (HER2 603-622 with Y610A) (human)
# T10 peptide: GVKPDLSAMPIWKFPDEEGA
# T11: M611A peptide (HER2 603-622 with M611A) (human)
# T11 peptide: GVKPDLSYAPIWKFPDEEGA
# T12: E619A peptide (HER2 603-622 with E619A) (human)
# T12 peptide: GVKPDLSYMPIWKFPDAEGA
# T13: P606A peptide (HER2 603-622 with P606A) (human)
# T13 peptide: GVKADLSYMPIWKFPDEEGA
# T14: HER2_604-622C peptide (NH2-VKPDLSYMPIWKFPDEEGAC-COOH) (human)
# T14 construct: KLH was added for immunisation, the peptide itself was coated in the screening ELISA
# T14 peptide: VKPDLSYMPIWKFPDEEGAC
# T15: D607A peptide (HER2 603-622 with D607A) (human)
# T15 peptide: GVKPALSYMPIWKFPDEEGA
# T16: P612A peptide (HER2 603-622 with P612A) (human)
# T16 peptide: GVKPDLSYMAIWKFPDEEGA
# T17: HER2 peptide p603-622 (amino acids 603 to 622 of human HER2) (human)
# T17 construct: Synthetic peptide; also called wild-type HER2 peptide
# T17 peptide: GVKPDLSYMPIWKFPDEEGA
# T18: G603A peptide (HER2 603-622 with G603A) (human)
# T18 peptide: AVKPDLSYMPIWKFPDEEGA
# T19: E620A peptide (HER2 603-622 with E620A) (human)
# T19 peptide: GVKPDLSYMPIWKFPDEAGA
# T20: V604A peptide (HER2 603-622 with V604A) (human)
# T20 peptide: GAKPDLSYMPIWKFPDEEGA
# T21: K605A peptide (HER2 603-622 with K605A) (human)
# T21 peptide: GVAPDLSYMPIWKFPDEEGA
# B1: H2Mab-286 antibody (antibody, mouse IgG1, kappa, V domains shown)
# VH: DVQLQESGPGLVKPSQSLSLTCTVTGYSITSDYGWNWIRQFPGNKLEWMGYIRYSGITSYNPSLKSRISITRDTSKNQFFLQLNSVTTEDTATYYCTREVLSWGQGTTLTVSS
# VL: DVVMTQTPLSLPVSLGDQASISCRSSQSLVHSNGNTYLHWFLQKPGQSPKLLIYKVSNRFSGVPARFSGSGSGTDFTLKISRVEAEDLGVYFCSQSTHVPPTFGGGTKLEIKR
# B2: H2Mab-298 antibody (antibody, mouse IgG1, kappa, V domains shown)
# VH: DVKLVESGGGLVKPGGSLKLSCAASGFTFSRYSMSWVRQTPEKKLEWVAIISTGGSYMFYPDSAKGRFTISRDDAKNTLYLQMSSLKSEDTAMYYCTREAGDYWGQGTTLTVSS
# VL: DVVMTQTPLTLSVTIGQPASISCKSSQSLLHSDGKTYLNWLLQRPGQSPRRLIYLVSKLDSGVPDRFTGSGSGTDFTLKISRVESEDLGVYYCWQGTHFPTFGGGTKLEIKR
# B3: H2Mab-294 antibody (antibody, mouse IgG1, kappa, V domains shown)
# VH: EVQLVESGGGLVQPGGSLKLSCAASGFTFSSYGMSWVRQTPDKRLELVATINSNGGGTYYPDSVKGRFTISRDNAKNTLYLQMSSLKSEDTAIYYCASPGSWFPYWGQGTLVTVSA
# VL: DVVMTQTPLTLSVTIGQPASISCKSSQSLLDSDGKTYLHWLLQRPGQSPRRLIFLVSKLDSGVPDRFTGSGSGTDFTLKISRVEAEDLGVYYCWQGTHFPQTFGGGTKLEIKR
# B4: H2Mab-293 antibody (antibody, mouse IgG3, V domains shown)
# VH: EVQLVESGGGLVQPGGSLKLSCAASGFTFSNYGIFWVRQTPDKRLELVATVKSNGGSTYYPDSVKGRFTISRDNAKKTLYLQMSSLKSEDTAMYYCAREGGDYWGQGTSVTVSS
# VL: DIVMTQSHKFMSTSVGDRVSITCKASQDVGTAVAWYQQKPGQSPKLLIYWTSTRHIGVPDRFTGSGSGTDFTLTIRNVQSEDLANYFCQQYSKNPLTFGAGTKLELKR
# B5: H2Mab-295 antibody (antibody, mouse IgG1, kappa, V domains shown)
# VH: EVQLQQSGPELVKPGASRKISCKASGYSFTGYTMNWVKKSHGKNLEWIGLINPYNGGTRYNQKFKGKATLTVDKSSSTAYMELLSLTSEDSAVYYCVKEPSDYWGQGTTLTVSS
# VL: B1 VL with F41Y, N58K, A65D, S70C, V83L, T97S
# B6: H2Mab-296 antibody (antibody, mouse IgG1, kappa, V domains shown)
# VH: QVTLKESGPGILQPSQTLSLTCSFSGFSLSTSGMGVGWIRQPSGKGLEWLAHIWWDDDKRYNPALKSRLTISKDTSSNQVFLKIANVDTSDTATYYCSRIEGQRGFAYWGQGTLVTVSA
# VL: DIVMSQSPSSLAVSVGEMITMTCKSSQSLLYSRNQKNYLAWYQQKPGQSPKLLIYWASTRESGVPDRFTGSGSGTDFTLTISSVKAEDLAVYYCQQYYSQPYTFGGGTKLEIKR
# Target: T1, F616A peptide (HER2 603-622 with F616A)
# Assay: peptide ELISA, OD 655 nm
row,Binder,binding result
1,B1,no binding (tested: 10 ug/ml)

# Target: T2, W614A peptide (HER2 603-622 with W614A)
# Assay: peptide ELISA, OD 655 nm
row,Binder,binding result
1,B1,no binding (tested: 10 ug/ml)

# Target: T3, P617A peptide (HER2 603-622 with P617A)
# Assay: peptide ELISA, OD 655 nm
row,Binder,binding result
1,B2,binds
2,B3,binds
3,B4,binds
4,B5,binds
5,B6,binds

# Target: T4, L608A peptide (HER2 603-622 with L608A)
# Assay: peptide ELISA, OD 655 nm
row,Binder,binding result
1,B2,binds
2,B3,binds
3,B4,binds
4,B5,binds
5,B6,binds

# Target: T5, G621A peptide (HER2 603-622 with G621A)
# Assay: peptide ELISA, OD 655 nm
row,Binder,binding result
1,B2,binds
2,B3,binds
3,B4,binds
4,B5,binds
5,B6,binds

# Target: T6, S609A peptide (HER2 603-622 with S609A)
# Assay: peptide ELISA, OD 655 nm
row,Binder,binding result
1,B2,binds
2,B3,binds
3,B4,binds
4,B5,binds
5,B6,binds

# Target: T7, K615A peptide (HER2 603-622 with K615A)
# Assay: peptide ELISA, OD 655 nm
row,Binder,binding result
1,B2,binds
2,B3,binds
3,B4,binds
4,B5,binds

# Target: T8, D618A peptide (HER2 603-622 with D618A)
# Assay: peptide ELISA, OD 655 nm
row,Binder,binding result
1,B2,binds
2,B3,binds
3,B4,binds
4,B5,binds
5,B6,binds

# Target: T9, I613A peptide (HER2 603-622 with I613A)
# Assay: peptide ELISA, OD 655 nm
row,Binder,binding result
1,B2,binds
2,B3,binds
3,B4,binds
4,B5,binds
5,B6,binds

# Target: T10, Y610A peptide (HER2 603-622 with Y610A)
# Assay: peptide ELISA, OD 655 nm
row,Binder,binding result
1,B2,binds
2,B3,binds
3,B4,binds
4,B5,binds
5,B6,binds

# Target: T11, M611A peptide (HER2 603-622 with M611A)
# Assay: peptide ELISA, OD 655 nm
row,Binder,binding result
1,B2,binds
2,B3,binds
3,B4,binds
4,B5,binds
5,B6,binds

# Target: T12, E619A peptide (HER2 603-622 with E619A)
# Assay: peptide ELISA, OD 655 nm
row,Binder,binding result
1,B2,binds
2,B3,binds
3,B4,binds
4,B5,binds
5,B6,binds

# Target: T13, P606A peptide (HER2 603-622 with P606A)
# Assay: peptide ELISA, OD 655 nm
row,Binder,binding result
1,B2,binds
2,B3,binds
3,B4,binds
4,B5,binds
5,B6,binds

# Target: T14, HER2_604-622C peptide …
# Assay: peptide ELISA, OD 655 nm
row,Binder,binding result
1,B2,binds
2,B3,binds
3,B4,binds
4,B5,binds
5,B6,binds

# Target: T15, D607A peptide (HER2 603-622 with D607A)
# Assay: peptide ELISA, OD 655 nm
row,Binder,binding result
1,B2,binds
2,B3,binds
3,B4,binds
4,B5,binds
5,B6,binds

# Target: T1, F616A peptide (HER2 603-622 with F616A)
# Assay: peptide ELISA, OD 655 nm
# Remark: another data set of the same source
row,Binder,binding result
1,B2,binds
2,B3,binds
3,B4,binds
4,B5,binds
5,B6,no binding (tested: 10 ug/ml)

# Target: T16, P612A peptide (HER2 603-622 with P612A)
# Assay: peptide ELISA, OD 655 nm
row,Binder,binding result
1,B2,binds
2,B3,binds
3,B4,binds
4,B5,binds
5,B6,binds

# Target: T17, HER2 peptide p603-622 (amino acids 603 …)
# Assay: peptide ELISA, OD 655 nm
row,Binder,binding result
1,B2,binds
2,B3,binds
3,B4,binds
4,B5,binds
5,B6,binds

# Target: T2, W614A peptide (HER2 603-622 with W614A)
# Assay: peptide ELISA, OD 655 nm
# Remark: another data set of the same source
row,Binder,binding result
1,B2,binds
2,B3,no binding (tested: 10 ug/ml)
3,B4,binds
4,B5,binds
5,B6,binds

# Target: T18, G603A peptide (HER2 603-622 with G603A)
# Assay: peptide ELISA, OD 655 nm
row,Binder,binding result
1,B2,binds
2,B3,binds
3,B4,binds
4,B5,binds
5,B6,binds

# Target: T19, E620A peptide (HER2 603-622 with E620A)
# Assay: peptide ELISA, OD 655 nm
row,Binder,binding result
1,B2,binds
2,B3,binds
3,B4,binds
4,B5,binds
5,B6,binds

# Target: T20, V604A peptide (HER2 603-622 with V604A)
# Assay: peptide ELISA, OD 655 nm
row,Binder,binding result
1,B2,binds
2,B3,binds
3,B4,binds
4,B5,binds
5,B6,binds

# Target: T21, K605A peptide (HER2 603-622 with K605A)
# Assay: peptide ELISA, OD 655 nm
row,Binder,binding result
1,B2,binds
2,B3,binds
3,B4,binds
4,B5,binds
5,B6,binds
